Data on seven molecules can be found in patent US20240218069A1 (LYVGEN BIOPHARMA, published 2024).

Assay [1] concerns the target T1, human CD40 (human, UniProt P25942 21-277).
T1 construct: whole, on cells; also called huCD40
In words: FACS on CHO cells expressing human CD40 (FIG. 2C).

A further assay addresses T2, human B7H3 (human, UniProt Q5ZPR3 29-534).
T2 construct: whole, on cells; CHO cells over-expressing human B7H3 (CHO-B7H3); also called CD276; cellular B7H3
T2 sequence (looked up): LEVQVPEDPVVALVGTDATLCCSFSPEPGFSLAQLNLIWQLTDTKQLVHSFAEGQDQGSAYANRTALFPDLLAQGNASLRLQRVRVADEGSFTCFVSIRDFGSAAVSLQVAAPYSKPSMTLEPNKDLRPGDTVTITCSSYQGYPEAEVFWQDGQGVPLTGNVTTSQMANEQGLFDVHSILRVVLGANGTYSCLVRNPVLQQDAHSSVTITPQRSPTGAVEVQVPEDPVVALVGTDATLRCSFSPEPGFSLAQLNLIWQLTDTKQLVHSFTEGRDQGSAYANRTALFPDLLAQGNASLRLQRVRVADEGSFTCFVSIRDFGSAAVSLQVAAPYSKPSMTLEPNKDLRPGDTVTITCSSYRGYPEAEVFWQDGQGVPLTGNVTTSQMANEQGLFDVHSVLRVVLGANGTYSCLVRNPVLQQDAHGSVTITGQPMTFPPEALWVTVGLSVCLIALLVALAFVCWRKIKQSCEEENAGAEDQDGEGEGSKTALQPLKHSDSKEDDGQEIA
In words: FACS on CHO cells over-expressing human B7H3. On the procedure:
FACS analysis was performed to evaluate the binding properties of exemplary anti-B7H3 humanized antibodies. Briefly, CHO cells over-expressing human B7H3 were harvested using trypsin-EDTA partial digestion followed by centrifugation at 1000 g for 3 minutes. The cells were re-suspended in cold PBS-BSA (2%) at 2×10⁶/mL and aliquoted to 100 μL/tube. The anti-B7H3 humanized antibodies were serially diluted in PBS-BSA and 50 μL of each was added to the CHO-B7H3 cells. The cell were mixed and incubated at 4° C. in the dark for 2 hours, then washed with PBS-BSA twice. Secondary antibody conjugates (goat F(ab′)₂ anti-human IgG-Fc (PE), pre-adsorbed, Abcam #ab98596) at 1/500 dilution, 100 μL/well, was used to resuspend the cells. The cells were incubated 4° C. in dark for another 1 hour and washed twice with PBS-BSA, followed by fixation in 2% PFA/PBS, and then subjected to FACS analysis.
Binding of the antibodies to human B7H3 expressing CHO cells were evaluated and the mean fluorescence intensity is plotted in histograms as shown in FIGS. 1A-1C. […] However, Ly1426 (CDR grafted, without back mutation) didn't bind to cellular B7H3.

The target of assay [2] is T1, human CD40. Put plainly: FACS on CHO cells expressing human CD40 (FIG. 2D).
Assay [3] concerns the target T1, human CD40. In words: FACS on CHO cells expressing human CD40 (FIGS. 2C and 2D).

T1 sequence (P25942 21-277): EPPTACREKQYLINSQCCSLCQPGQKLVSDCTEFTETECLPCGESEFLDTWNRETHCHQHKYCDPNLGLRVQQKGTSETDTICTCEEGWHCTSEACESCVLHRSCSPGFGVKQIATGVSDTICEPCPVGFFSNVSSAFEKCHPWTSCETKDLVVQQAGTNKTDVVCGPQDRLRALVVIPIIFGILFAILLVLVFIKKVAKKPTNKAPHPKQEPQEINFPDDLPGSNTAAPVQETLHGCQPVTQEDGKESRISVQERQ

B1: Ly1663 (bispecific antibody)
heavy: QVQLVQSGAEVKKPGASVKVSCKASGYTFTSYVMHWVRQKPGQGLEWIGYINPYNEGTESTDKFKGRATMTSDKSTSTVYMELSSLRSEDTAVYYCASIYYGYEGTYFGVWGQGTLVTVSSASTKGPSVFPLAPSSKSTSGGTAALGCLVKDYFPEPVTVSWNSGALTSGVHTFPAVLQSSGLYSLSSVVTVPSSSLGTQTYICNVNHKPSNTKVDKKVEPKSCDKTHTCPPCPAPELLGPSVFLFPPKPKDTLMISRTPEVTCVVVDVSHEDPEVKFNWYVDGVEVHNAKTKPREEQYNSTYRVVSVLTVLHQDWLNGKEYKCKVSNKALPAPIEKTISKAKGQPREPQVYTLPPSREEMTKNQVSLTCLVKGFYPSDIAVEWESNGQPENNYKTTPPVLDSDGSFFLYSKLTVDKSRWQQGNVFSCSVMHEALHNHYTQKSLSLSPGK
light: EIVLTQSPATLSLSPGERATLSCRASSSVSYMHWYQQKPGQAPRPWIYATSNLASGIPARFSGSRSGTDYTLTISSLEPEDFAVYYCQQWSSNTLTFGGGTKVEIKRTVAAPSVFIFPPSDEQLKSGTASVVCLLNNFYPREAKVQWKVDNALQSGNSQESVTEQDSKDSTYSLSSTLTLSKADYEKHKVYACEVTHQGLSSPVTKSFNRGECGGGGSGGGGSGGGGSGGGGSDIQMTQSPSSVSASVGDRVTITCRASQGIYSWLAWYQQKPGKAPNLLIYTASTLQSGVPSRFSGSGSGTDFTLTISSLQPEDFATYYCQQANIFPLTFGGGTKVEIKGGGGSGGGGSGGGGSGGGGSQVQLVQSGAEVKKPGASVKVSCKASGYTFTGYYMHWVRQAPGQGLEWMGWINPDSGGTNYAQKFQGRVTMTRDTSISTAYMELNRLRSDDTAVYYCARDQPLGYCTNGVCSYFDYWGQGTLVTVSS
notes: Two-chain format; also called anti-B7H3/CD40 bi-specific antibody Ly1663
Consider B1, for which the binding result with human CD40 [1] is recorded as “binds”.

B2: Ly1426 (antibody, human IgG1, kappa, V domains shown)
VH: QVQLVQSGAEVKKPGASVKVSCKASGYTFTSYVMHWVRQAPGQGLEWMGYINPYNDGTECTDKFKGRVTMTRDTSTSTVYMELSSLRSEDTAVYYCARIYYGYDGTYFGVWGQGTLVTVSS
VL: EIVLTQSPATLSLSPGERATLSCRASSSVSYMHWYQQKPGQAPRLLIYATSNLASGIPARFSGSGSGTDFTLTISSLEPEDFAVYYCQQWSSNTLTFGGGTKVEIKR
notes: also called Ly383_VH-1/Ly383_VL-1; grafted humanized antibody of Ly383
Turning to B2, in the assay with human B7H3, the binding result is “no binding”.

B3: Ly1579 (bispecific antibody)
heavy: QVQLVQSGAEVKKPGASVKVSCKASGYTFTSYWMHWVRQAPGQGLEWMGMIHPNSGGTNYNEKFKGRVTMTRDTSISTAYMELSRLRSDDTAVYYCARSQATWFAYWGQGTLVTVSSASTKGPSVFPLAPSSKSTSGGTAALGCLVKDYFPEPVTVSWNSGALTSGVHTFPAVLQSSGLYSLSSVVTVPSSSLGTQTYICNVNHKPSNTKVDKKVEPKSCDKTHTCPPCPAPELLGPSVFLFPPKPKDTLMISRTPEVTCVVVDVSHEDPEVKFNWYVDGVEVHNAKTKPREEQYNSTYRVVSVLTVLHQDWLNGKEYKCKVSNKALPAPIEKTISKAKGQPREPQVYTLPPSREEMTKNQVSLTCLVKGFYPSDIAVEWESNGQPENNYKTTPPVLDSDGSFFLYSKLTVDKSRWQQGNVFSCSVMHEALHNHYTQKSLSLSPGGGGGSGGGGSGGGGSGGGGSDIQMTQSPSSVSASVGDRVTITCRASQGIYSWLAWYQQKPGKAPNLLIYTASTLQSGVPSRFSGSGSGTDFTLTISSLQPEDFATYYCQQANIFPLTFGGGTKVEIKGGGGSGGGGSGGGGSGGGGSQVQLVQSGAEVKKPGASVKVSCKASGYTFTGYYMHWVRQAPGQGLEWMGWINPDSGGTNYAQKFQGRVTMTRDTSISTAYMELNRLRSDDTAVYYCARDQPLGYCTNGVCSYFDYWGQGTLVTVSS
light: EIVLTQSPATLSLSPGERATLSCRASSSVSSSYLHWYQQKPGQAPRLLIYSTSNLASGIPARFSGSGSGTDFTLTISSLEPEDFAVYYCQHYSGYPLTFGGGTKVEIKRTVAAPSVFIFPPSDEQLKSGTASVVCLLNNFYPREAKVQWKVDNALQSGNSQESVTEQDSKDSTYSLSSTLTLSKADYEKHKVYACEVTHQGLSSPVTKSFNRGEC
notes: Two-chain format; also called anti-B7H3/CD40 bi-specific antibody Ly1579
Regarding B3, in the assay with human CD40 [2], the binding result is recorded as “binds”.

B4: Ly1581 (bispecific antibody)
heavy: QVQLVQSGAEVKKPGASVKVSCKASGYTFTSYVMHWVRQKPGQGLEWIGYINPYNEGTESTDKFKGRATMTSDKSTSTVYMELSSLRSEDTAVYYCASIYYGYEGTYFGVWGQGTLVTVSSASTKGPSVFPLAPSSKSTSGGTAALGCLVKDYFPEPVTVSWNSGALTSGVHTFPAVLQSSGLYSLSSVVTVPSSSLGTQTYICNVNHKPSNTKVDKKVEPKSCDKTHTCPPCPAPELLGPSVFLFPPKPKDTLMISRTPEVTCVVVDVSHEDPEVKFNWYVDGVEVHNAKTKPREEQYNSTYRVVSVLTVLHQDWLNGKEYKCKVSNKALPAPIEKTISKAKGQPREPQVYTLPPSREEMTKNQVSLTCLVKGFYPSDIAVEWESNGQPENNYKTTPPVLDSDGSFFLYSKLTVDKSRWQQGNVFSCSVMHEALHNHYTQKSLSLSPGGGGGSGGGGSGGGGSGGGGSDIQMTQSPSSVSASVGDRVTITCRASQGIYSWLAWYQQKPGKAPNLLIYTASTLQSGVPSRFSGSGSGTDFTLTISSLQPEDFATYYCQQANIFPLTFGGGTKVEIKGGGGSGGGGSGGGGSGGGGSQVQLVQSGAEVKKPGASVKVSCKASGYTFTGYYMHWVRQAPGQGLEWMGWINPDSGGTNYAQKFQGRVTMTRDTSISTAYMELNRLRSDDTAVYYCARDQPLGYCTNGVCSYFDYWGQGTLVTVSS
light: EIVLTQSPATLSLSPGERATLSCRASSSVSYMHWYQQKPGQAPRPWIYATSNLASGIPARFSGSRSGTDYTLTISSLEPEDFAVYYCQQWSSNTLTFGGGTKVEIKRTVAAPSVFIFPPSDEQLKSGTASVVCLLNNFYPREAKVQWKVDNALQSGNSQESVTEQDSKDSTYSLSSTLTLSKADYEKHKVYACEVTHQGLSSPVTKSFNRGEC
notes: also called anti-B7H3/CD40 bi-specific antibody Ly1581
Turning to B4, the binding result with human CD40 [3] was “binds”.

B5: Ly1660 (bispecific antibody, human IgG1, kappa)
heavy: QVQLVQSGAEVKKPGASVKVSCKASGYTFTSYVMHWVRQKPGQGLEWIGYINPYNEGTESTDKFKGRATMTSDKSTSTVYMELSSLRSEDTAVYYCASIYYGYEGTYFGVWGQGTLVTVSSASTKGPSVFPLAPSSKSTSGGTAALGCLVKDYFPEPVTVSWNSGALTSGVHTFPAVLQSSGLYSLSSVVTVPSSSLGTQTYICNVNHKPSNTKVDKKVEPKSCDKTHTCPPCPAPELLGPSVFLFPPKPKDTLMISRTPEVTCVVVDVSHEDPEVKFNWYVDGVEVHNAKTKPREEQYNSTYRVVSVLTVLHQDWLNGKEYKCKVSNKALPAPIEKTISKAKGQPREPQVYTLPPCREEMTKNQVSLWCLVKGFYPSDIAVEWESNGQPENNYKTTPPVLDSDGSFFLYSKLTVDKSRWQQGNVFSCSVMHEALHNHYTQKSLSLSPGK
chain 1: not shown
light: EIVLTQSPATLSLSPGERATLSCRASSSVSYMHWYQQKPGQAPRPWIYATSNLASGIPARFSGSRSGTDYTLTISSLEPEDFAVYYCQQWSSNTLTFGGGTKVEIKRTVAAPSVFIFPPSDEQLKSGTASVVCLLNNFYPREAKVQWKVDNALQSGNSQESVTEQDSKDSTYSLSSTLTLSKADYEKHKVYACEVTHQGLSSPVTKSFNRGEC
chain 2: DIQMTQSPSSVSASVGDRVTITCRASQGIYSWLAWYQQKPGKAPNLLIYTASTLQSGVPSRFSGSGSGTDFTLTISSLQPEDFATYYCQQANIFPLTFGGGTKVEIKSSASTKGPSVFPLAPSSKSTSGGTAALGCLVKDYFPEPVTVSWNSGALTSGVHTFPAVLQSSGLYSLSSVVTVPSSSLGTQTYICNVNHKPSNTKVDKKVEPKSC
notes: Four-chain heterodimer format; also called anti-B7H3/CD40 bi-specific antibody Ly1660
Turning to B5, in the assay with human CD40 [1], the binding result is “binds”.

B6: Ly1662 (bispecific antibody)
heavy: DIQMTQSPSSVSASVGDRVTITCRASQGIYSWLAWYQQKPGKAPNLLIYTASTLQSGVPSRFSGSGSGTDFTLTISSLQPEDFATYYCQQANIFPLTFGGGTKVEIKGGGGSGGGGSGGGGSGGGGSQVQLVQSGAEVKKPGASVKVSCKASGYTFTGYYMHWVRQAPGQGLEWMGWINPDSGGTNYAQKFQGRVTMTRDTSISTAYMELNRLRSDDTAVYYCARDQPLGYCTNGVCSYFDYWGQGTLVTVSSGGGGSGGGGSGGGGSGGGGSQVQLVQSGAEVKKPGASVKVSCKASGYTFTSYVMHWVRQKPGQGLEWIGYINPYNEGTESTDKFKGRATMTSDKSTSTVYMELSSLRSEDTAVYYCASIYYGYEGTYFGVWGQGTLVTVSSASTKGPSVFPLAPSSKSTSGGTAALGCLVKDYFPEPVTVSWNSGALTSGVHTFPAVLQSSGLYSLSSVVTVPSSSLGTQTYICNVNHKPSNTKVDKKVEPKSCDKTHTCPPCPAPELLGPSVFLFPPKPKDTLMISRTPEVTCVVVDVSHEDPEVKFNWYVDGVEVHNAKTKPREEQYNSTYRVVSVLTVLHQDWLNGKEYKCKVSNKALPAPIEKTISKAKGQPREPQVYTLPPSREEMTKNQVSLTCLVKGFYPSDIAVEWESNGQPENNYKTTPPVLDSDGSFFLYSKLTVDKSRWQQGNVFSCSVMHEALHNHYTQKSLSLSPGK
light: EIVLTQSPATLSLSPGERATLSCRASSSVSYMHWYQQKPGQAPRPWIYATSNLASGIPARFSGSRSGTDYTLTISSLEPEDFAVYYCQQWSSNTLTFGGGTKVEIKRTVAAPSVFIFPPSDEQLKSGTASVVCLLNNFYPREAKVQWKVDNALQSGNSQESVTEQDSKDSTYSLSSTLTLSKADYEKHKVYACEVTHQGLSSPVTKSFNRGEC
notes: Two-chain format; also called anti-B7H3/CD40 bi-specific antibody Ly1662
For the molecule B6, the binding result with human CD40 [1] is given as “binds”.

B7: Ly1661 (bispecific antibody, human IgG1, kappa)
heavy: QVQLVQSGAEVKKPGASVKVSCKASGYTFTSYVMHWVRQKPGQGLEWIGYINPYNEGTESTDKFKGRATMTSDKSTSTVYMELSSLRSEDTAVYYCASIYYGYEGTYFGVWGQGTLVTVSSASTKGPSVFPLAPSSKSTSGGTAALGCLVKDYFPEPVTVSWNSGALTSGVHTFPAVLQSSGLYSLSSVVTVPSSSLGTQTYICNVNHKPSNTKVDKKVEPKSCDKTHTCPPCPAPELLGPSVFLFPPKPKDTLMISRTPEVTCVVVDVSHEDPEVKFNWYVDGVEVHNAKTKPREEQYNSTYRVVSVLTVLHQDWLNGKEYKCKVSNKALPAPIEKTISKAKGQPREPQVYTDPPSREEMTKNQVSLTCEVKGFYPSDIAVEWESNGQPENNYKTTPPVLDSDGSFFLYSKLTVDKSRWQQGNVFSCSVMHEALHNHYTQKSLSLSPGK
chain 1: not shown
light: EIVLTQSPATLSLSPGERATLSCRASSSVSYMHWYQQKPGQAPRPWIYATSNLASGIPARFSGSRSGTDYTLTISSLEPEDFAVYYCQQWSSNTLTFGGGTKVEIKRTVAAPSVFIFPPSDEQLKSGTASVVCLLNNFYPREAKVQWKVDNALQSGNSQESVTEQDSKDSTYSLSSTLTLSKADYEKHKVYACEVTHQGLSSPVTKSFNRGEC
chain 2: DIQMTQSPSSVSASVGDRVTITCRASQGIYSWLAWYQQKPGKAPNLLIYTASTLQSGVPSRFSGSGSGTDFTLTISSLQPEDFATYYCQQANIFPLTFGGGTKVEIKSSASTKGPSVFPLAPSSKSTSGGTAALGCLVKDYFPEPVTVSWNSGALTSGVHTFPAVLQSSGLYSLSSVVTVPSSSLGTQTYICNVNHKPSNTKVDKKVEPKSC
notes: Four-chain heterodimer format; also called anti-B7H3/CD40 bi-specific antibody Ly1661
Turning to B7, the binding result with human CD40 [1] is given as “binds”.
